Among the data in patent publication EP2450379B1 are OD 492nm values, retold here.

In this assay the target is HA in BPL-inactivated virus preparation of A/New Caledonia/20/99 (H1N1) (influenza A virus A/New Caledonia/20/99 (H1N1)). The experiment in a line: ELISA, IgG 5 µg/ml.

CR3014 (antibody) returned an OD 492nm of 0.09 OD 492nm.

CR6261 (antibody) came in with an OD 492nm of 1.46 OD 492nm.
